This is an account of results in US20220340642A1 (Kyowa Kirin, published 2022).

Where a chain is given by its changes, count along the chain named. Names may count otherwise.

The test concerns the target T1, membrane-bound human FasL (Met and FLAG tag at the N-terminus) on CHO-K1 cells (human, UniProt P48023 2-281).
T1 construct: also called FasL/CHO
T1 sequence: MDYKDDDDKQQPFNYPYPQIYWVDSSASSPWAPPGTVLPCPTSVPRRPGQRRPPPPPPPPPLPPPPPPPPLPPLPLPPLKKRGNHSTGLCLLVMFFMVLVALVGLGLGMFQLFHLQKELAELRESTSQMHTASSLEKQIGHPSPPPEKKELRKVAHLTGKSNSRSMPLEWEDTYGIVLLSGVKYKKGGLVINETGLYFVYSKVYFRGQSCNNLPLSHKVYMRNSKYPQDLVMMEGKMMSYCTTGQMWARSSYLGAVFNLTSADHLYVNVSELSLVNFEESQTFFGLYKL
The test is described as follows: flow cytometry on expressing cells. The method in brief: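 Binding was measured by flow cytometry on HEK293 cells forced to express membrane-bound LIGHT and on cell lines expressing N-terminally Met/FLAG-tagged TL1A or FasL from a CMV-promoter pClpuro vector. Cells at 1×10⁵ cells/well received 1 or 10 μg/mL protein on ice for 1 hour. After washing, cells were stained on ice for 1 hour with LIVE/DEAD Fixable Aqua and R-phycoerythrin goat F(ab′)₂ anti-human IgG (10 ng/mL, 0.1 or 1 μg/mL). Fluorescence was read on a FACS Fortessa.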
(A flow cytometer gives signals particle by particle.)

B1: chimera A-E57K_R58D-Fc (Eg1S LALAGANA) (Fc fusion)
chain: ETFPPKYLHYDEETSHQLLCDKCPPGTYLKQHCTAKWKTVCAPCPPRHYTQFWNYLKDCRYCNVLCGEREEEARACHATHNRACRCRTGFFAHAGFCLEHASCPPGAGVIAPGTPSQNTQCQPCPDGFFSNETSSKAPCRKHTNCSVFGLLLTQKGNATHDNICSGNSESTQKEPKSSDKTHTCPPCPAPEAAGAPSVFLFPPKPKDTLMISRTPEVTCVVVDVSHEDPEVKFNWYVDGVEVHNAKTKPREEQYNSTYRVVSVLTVLHQDWLNGKEYKCKVSNKALPAPIEKTISKAKGQPREPQVYTLPPSRDELTKNQVSLTCLVKGFYPSDIAVEWESNGQPENNYKTTPPVLDSDGSFFLYSKLTVDKSRWQQGNVFSCSVMHEALHAHYTQKSLSLSPGK
With B1, the binding result is “binds”.

B2: chimera A-E57K-Fc (Eg1S YTE) (Fc fusion)
chain: B1 chain with D58R, A192L, A193L, A195G, M210Y, S212T, T214E, A392N
B2: the binding result is recorded as “binds”.

B3: chimera A-E57R-Fc (Eg1S YTE) (Fc fusion)
chain: B1 chain with K57R, D58R, A192L, A193L, A195G, M210Y, S212T, T214E, A392N
As for B3, the binding result is “binds”.

B4: chimera A-E57K_R58E-Fc (Eg1S LALAGANA) (Fc fusion)
chain: B1 chain with D58E
For the molecule B4, the binding result is “binds”.

B5: chimera A-E57K-Fc (Eg1S LALAGANA) (Fc fusion)
chain: B1 chain with D58R
For the molecule B5, the binding result is on record as “binds”.

B6: chimera A-E57R-Fc (Eg1S LALAGANA) (Fc fusion)
chain: B1 chain with K57R, D58R
B6: the binding result is reported as “binds”.

B7: chimera A-E57V-Fc (Eg1S LALAGANA) (Fc fusion)
chain: B1 chain with K57V, D58R
As to B7, the binding result was “binds”.

B8: chimera A-E57V-Fc (Eg1S YTE) (Fc fusion)
chain: B1 chain with K57V, D58R, A192L, A193L, A195G, M210Y, S212T, T214E, A392N
As to B8, the binding result is “binds”.

B9: chimera A-E57K_R58D-Fc (Eg1S YTE) (Fc fusion)
chain: B1 chain with A192L, A193L, A195G, M210Y, S212T, T214E, A392N
notes: also called 45-10-Fc (Eg1S YTE)
In the case of B9, the binding result is “binds”.

B10: chimera A-E57K_R58E-Fc (Eg1S YTE) (Fc fusion)
chain: B1 chain with D58E, A192L, A193L, A195G, M210Y, S212T, T214E, A392N
notes: also called 45-18-Fc (Eg1S YTE)
Consider B10, for which the binding result is listed as “binds”.
